From the supplement of paper PMC9732359
± gives the uncertainty stated by the source.

Experiment: protein stability index of a GFP-peptide fusion (yeast GPS) (PSI 1-4); higher = more stable; sorted into four equal gates, so the index is relative within each strain
In short: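 Peptides tiling yeast proteins in 17-residue segments were fused downstream of GFP, with Cherry expressed from the same plasmid. As a pooled library in yeast, mid-log cultures grown in leucine-free medium were sorted into four equal gates by GFP/Cherry fluorescence ratio. Gate plasmids were PCR-amplified and Illumina-sequenced, and barcodes linked reads to strains. Each peptide received a protein stability index equal to the sum of each gate's read frequency times its gate number.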

Sequence | protein stability index (doa10∆) | protein stability index (pdr5∆) | protein stability index (san1∆) | protein stability index (ubr1∆)
VNDNPDIEAGDDDDNNE [DIS3] | 3.46 ± 0.19 | 3.47 ± 0.14 | 2.73 ± 0.22 | 3.33 ± 0.089
TRNPDAPKGSTDPKELY [RPC40] | 3.11 ± 0.23 | 3.63 ± 0.29 |  | 3.48 ± 0.16
DIYSHEYKVITSLQGTY [YMR129W/POM152] | 1.89 ± 0.064 | 2.43 ± 0.07 | 2.65 ± 0.075 | 2.49 ± 0.048
NSWFDVTWRTFTGDFLR [FAS1] | 2.75 ± 0.11 | 1.93 ± 0.093 | 1.98 ± 0.12 | 2.61 ± 0.069
LSCVKNDTISEDILQGI [NUT1] | 2.69 ± 0.067 | 2.35 ± 0.073 | 2.53 ± 0.11 | 3.17 ± 0.076
QGRFRGNLSGKRVDFSG [RPO31] | 3.36 ± 0.099 | 2.12 ± 0.11 | 2.76 ± 0.1 | 2.56 ± 0.12
EQHNLVKKGPVRLPTKV [RPS20] | 2.45 ± 0.097 | 2.61 ± 0.16 | 2.65 ± 0.063 | 2.64 ± 0.075
TKEKVNGASVPINLHPS [RPL26A] | 2.54 ± 0.067 | 2.73 ± 0.078 | 2.92 ± 0.07 | 2.93 ± 0.064
ITHYAVRGGNIEIMGIL [RRI1] | 2.85 ± 0.1 | 2.54 ± 0.097 | 2.79 ± 0.095 | 2.25 ± 0.13
EYINNCKKNTKKCLKLA [POP4] | 2.82 ± 0.13 | 3.1 ± 0.13 | 2.99 ± 0.077 | 2.78 ± 0.14
EGKSVDELITEGNEKLA [RPP2A] |  | 3.23 ± 0.16 | 3.41 ± 0.074 | 3.45 ± 0.28
RQNKVQHQRIVAFVCSP [RPN10] | 1.24 ± 0.069 | 1.4 ± 0.12 |  | 1.42 ± 0.12
EFIQDSAARGLSLVYEI [ECM29] |  |  |  | 3.64 ± 0.12
NPEPNKKNIQKAKSNQT [IRR1] | 2.25 ± 0.062 | 2.43 ± 0.062 | 2.56 ± 0.13 | 2.56 ± 0.051
LRQKHEFLEDFDLVRNI [SMC2] | 3.1 ± 0.11 | 3.05 ± 0.098 | 3.14 ± 0.063 | 3.34 ± 0.099
VTIIPLDKIYTRPISSQ [SMC2] | 1.66 ± 0.067 | 1.55 ± 0.084 | 1.64 ± 0.082 | 1.25 ± 0.045
TRISSQFEKSRKVSGPR [RET1] | 2.94 ± 0.27 | 2.92 ± 0.18 | 2.92 ± 0.098 | 2.75 ± 0.2
IASDGSYVNYRHMALLV [RPO21] | 1.68 ± 0.055 | 1.89 ± 0.051 | 1.35 ± 0.067 | 1.59 ± 0.038
TDSDFAKYHAKLNKKLQ [SRP68] | 2.97 ± 0.059 | 3.12 ± 0.055 | 2.84 ± 0.043 | 3 ± 0.05
CILYDADESKMAKLNEC [RET1] | 2.28 ± 0.062 | 1.99 ± 0.06 | 2.32 ± 0.1 | 1.76 ± 0.055
TRLPAFERPAVKEEKED [RPC53] | 2.87 ± 0.25 | 2.71 ± 0.23 | 3.21 ± 0.085 | 3.46 ± 0.16
ETISKLNEYKRETLVKT [SMC2] | 2.02 ± 0.059 | 1.99 ± 0.046 | 2.19 ± 0.062 | 2.57 ± 0.034
TPGLTFNAIDLARHLPA [RPC82] | 2.71 ± 0.069 | 2.73 ± 0.061 | 2.77 ± 0.056 | 3.21 ± 0.075
FGQKGGQAIVVHPDYLY [FAS2] | 1.86 ± 0.046 | 1.62 ± 0.04 | 1.99 ± 0.06 | 1.68 ± 0.049

Sequence | protein stability index (doa10∆) | protein stability index (pdr5∆) | protein stability index (san1∆) | protein stability index (ubr1∆)
FGNKPAGSTGFSFGQNN [YGR119C/NUP57] | 1.75 ± 0.089 | 1.77 ± 0.085 | 1.46 ± 0.15 | 1.29 ± 0.28
QYTQRLSKLEKALDRHE [SRP68] | 2.52 ± 0.046 | 2.65 ± 0.035 | 2.72 ± 0.039 | 2.66 ± 0.037
KTPVFTTGGDYILSLVS [YMR129W/POM152] | 2.06 ± 0.056 | 2.13 ± 0.058 | 1.74 ± 0.064 | 1.87 ± 0.044
EDAFNFWFDKLVTKILP [YCG1] | 1.94 ± 0.21 | 2.5 ± 0.14 | 2.88 ± 0.12 | 2.94 ± 0.11
CVKNHGQSSSIQSSLMT [YCS4] | 2.48 ± 0.17 | 2.67 ± 0.14 | 2.83 ± 0.052 | 3.05 ± 0.1
PRRDGERKRKSVRGAIV [RPS6A] | 3.16 ± 0.099 | 3.29 ± 0.075 | 3.33 ± 0.072 | 3.05 ± 0.087
TRGGASALIENNLFRII [YJL039C/NUP192] | 2.48 ± 0.048 | 2.41 ± 0.052 | 2.41 ± 0.052 | 2.7 ± 0.041
RELLVEGYGLRDVMCTD [RPO31] | 2.36 ± 0.063 | 2.57 ± 0.063 | 2.77 ± 0.066 | 2.95 ± 0.056
NLKLISVSLVDEFPSEL [SIR4] | 2.57 ± 0.061 | 2.6 ± 0.052 | 2.5 ± 0.06 | 2.6 ± 0.033
IISRLNADFQKPWFATV [FAS1] | 2.27 ± 0.066 | 2.4 ± 0.063 | 2.1 ± 0.071 | 2.96 ± 0.069
RRVYNRVLETTLVEFET [BRN1] | 2.21 ± 0.068 | 2.86 ± 0.098 | 2.69 ± 0.17 | 1.7 ± 0.071
YALFLKALRRKIYINLA [SSN2] | 1.62 ± 0.092 | 1.31 ± 0.067 | 1.35 ± 0.12 | 1.47 ± 0.085
VSLTKRKQEREITSLRQ [YIL149C/MLP2] | 2.03 ± 0.2 | 2.32 ± 0.14 | 2.45 ± 0.14 | 2.35 ± 0.071
YVIKALQSLTSKGYVKT [RPS10A] | 2.88 ± 0.12 | 1.74 ± 0.072 | 1.39 ± 0.17 | 2.6 ± 0.089
QKEEGRSFTKAIEDAKK [YLR335W/NUP2] | 3.1 ± 0.11 | 3.06 ± 0.085 | 3.05 ± 0.086 | 2.8 ± 0.069
VGKQIVNIPSFMVRLDS [RPS9A] | 2.59 ± 0.099 | 2.69 ± 0.12 | 2.42 ± 0.18 | 2.62 ± 0.096
EPGHAADQEQAKLIRSA [RPO21] | 3.2 ± 0.2 | 3.24 ± 0.2 | 2.69 ± 0.19 | 3.12 ± 0.1
SWVQPRIISGDQITKMK [RPN9] | 3.76 ± 0.26 | 3.27 ± 0.12 | 2.94 ± 0.14 | 3.56 ± 0.2
TEDIRIRAQNFKSALAN [RRP6] | 2.35 ± 0.067 | 2.41 ± 0.091 | 2.56 ± 0.1 | 2.73 ± 0.053
DSTQLLETILEEFRNLA [SSN2] | 2.69 ± 0.076 | 3.18 ± 0.065 | 2.85 ± 0.055 | 3.2 ± 0.054
NPSEFTPNMVNSEISNL [SSN2] | 2.66 ± 0.08 | 2.5 ± 0.1 | 2.58 ± 0.08 | 2.91 ± 0.062
GAVGLKDLTLCRYSCLA [YCS4] | 2.4 ± 0.095 | 2.42 ± 0.1 | 1.94 ± 0.12 | 2.13 ± 0.085
ILSLEQSSRVVSLSQLL [YCS4] | 1.84 ± 0.072 | 1.5 ± 0.05 | 2.12 ± 0.098 | 1.85 ± 0.063
PQWKRHLEEYGYLIQVL [YCS4] | 2.27 ± 0.052 | 2.73 ± 0.057 | 2.02 ± 0.095 | 2.5 ± 0.047

Sequence | protein stability index (doa10∆) | protein stability index (pdr5∆) | protein stability index (san1∆) | protein stability index (ubr1∆)
VHRDDPALVGKLRGDLR [SNF6] | 3.36 ± 0.083 | 3.2 ± 0.088 | 2.7 ± 0.092 | 2.88 ± 0.071
LKRYCCRRMILTHVDLI [RPB10] |  | 1.54 ± 0.11 |  | 1.57 ± 0.12
TEYRGTLVSTDNYFNLQ [SMX3] | 1.83 ± 0.038 | 2.65 ± 0.046 | 2.4 ± 0.059 | 2.23 ± 0.041
LHKLELKAKNQEEEGEL [DSN1] | 3.14 ± 0.17 | 3.29 ± 0.17 | 3.37 ± 0.14 | 3.25 ± 0.1
VTPEDVMTISSLEQRTL [RPC82] | 3.2 ± 0.084 | 3.1 ± 0.076 | 3.06 ± 0.061 | 3.25 ± 0.073
QEFFFHAMGGREGLIDT [RPO21] | 2.54 ± 0.081 | 2.17 ± 0.08 | 2.39 ± 0.087 | 2.08 ± 0.063
LDSTGFDSTAFNATVDE [MED2] | 3.08 ± 0.048 | 3.27 ± 0.053 | 3.06 ± 0.053 | 3.07 ± 0.038
RWEMEAFGEFSLEGCVE [FAS2] | 3.28 ± 0.17 | 3.36 ± 0.16 | 2.98 ± 0.095 | 2.83 ± 0.14
SFLFSAIPLQQVLSQSA [SWI1] | 1.58 ± 0.054 | 1.43 ± 0.064 | 1.28 ± 0.091 | 1.39 ± 0.034
NANAGLFNKPPSTNAQN [YOR098C/NUP1] | 3.1 ± 0.046 | 3.17 ± 0.046 | 3.06 ± 0.038 | 3.16 ± 0.034
EHRIRVFFDKRIGQEVD [RPS6A] | 3.25 ± 0.14 | 3.09 ± 0.14 | 2.6 ± 0.29 | 2.87 ± 0.2
QLLTPGSKISSNDLDKF [YGL172W/NUP49] | 2.88 ± 0.19 | 2.85 ± 0.084 | 3.13 ± 0.1 | 2.54 ± 0.2
NVFNDTPRGNHWMGSSV [YMR129W/POM152] | 3.39 ± 0.11 | 3.46 ± 0.099 | 2.98 ± 0.075 | 3.12 ± 0.081
EELRDLYQTYHVLVGDL [FAS1] | 2.26 ± 0.071 | 2.54 ± 0.054 | 2.22 ± 0.059 | 2.38 ± 0.049
EVTAGEAQDEASLQQQQ [SNF6] | 3.31 ± 0.17 |  | 3.29 ± 0.14 | 3.6 ± 0.27
ASGLLRAYLSHSNRCIV [CSN12] | 1.85 ± 0.04 | 1.56 ± 0.04 | 1.7 ± 0.063 | 1.25 ± 0.027
RKEPPATVEECVKLTVR [PRE6] | 1.45 ± 0.06 | 1.67 ± 0.074 | 1.7 ± 0.2 | 1.43 ± 0.055
DQMVVGWYHSHPGFGCW [RPN11] | 2.57 ± 0.079 | 2.92 ± 0.063 | 2.37 ± 0.069 | 2.21 ± 0.087
IYRYKYKVMHQIRACKD [PRP8] | 2.56 ± 0.099 | 2.14 ± 0.086 | 2.45 ± 0.078 | 1.99 ± 0.088
VKEESQPDENTKEMDEV [SWI3] | 3.3 ± 0.19 | 2.81 ± 0.24 | 3.07 ± 0.17 | 3.03 ± 0.11
KGLETIDNGAESSENEA [RPC53] | 3.24 ± 0.13 | 3.44 ± 0.13 | 3.14 ± 0.1 | 3.12 ± 0.094
LDALVDCENFFNYVQEC [YJL039C/NUP192] | 3.37 ± 0.12 | 3.43 ± 0.084 | 3.44 ± 0.079 | 3.41 ± 0.065
PRDVIKGKDFEITAKEV [FAS1] | 3.27 ± 0.095 | 3.41 ± 0.12 | 3.24 ± 0.07 | 3.36 ± 0.083
